Measurements reported in doi:10.1101/2025.09.18.677151, “Structure and substrate recognition by the Twin-arginine translocation (Tat) pathway core complex” (bioRxiv, 2025).
Each block holds one binder with its values, some of them ahead of it.

Experiments:
E. coli TatBC complex = biological target: T1, E. coli TatBC complex (E. coli, UniProt P69425 1-171; P69423 1-258); assay: cryo-EM structure; purified MdoD (SUMO removed) mixed with purified E. coli Tat complex in 0.02% GDN overnight at 4°C, SEC; core region 2.4 Å (C3), focused refinement on MdoD 2.1 Å (C2); conditions: both partners purified
T1 construct: TatB, E. coli; amplified from E. coli genomic DNA (DSM 1116); TatC, E. coli; also called TatB3C3; (TatBC)3; source: E. coli MC4100 ΔtatABCD ΔtatE, pQE60 based vector, overexpressed; purified in GDN (His-tag resin, SEC); for the pull-down captured from GDN-solubilised membranes on His-tag resin and washed; copies: 3 + 3
T1 sequence 1: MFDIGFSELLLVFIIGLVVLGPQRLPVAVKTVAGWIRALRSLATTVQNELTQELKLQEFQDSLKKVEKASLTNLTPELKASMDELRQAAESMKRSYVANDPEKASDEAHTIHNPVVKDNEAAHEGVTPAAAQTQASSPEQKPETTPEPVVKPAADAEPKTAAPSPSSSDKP
T1 sequence 2: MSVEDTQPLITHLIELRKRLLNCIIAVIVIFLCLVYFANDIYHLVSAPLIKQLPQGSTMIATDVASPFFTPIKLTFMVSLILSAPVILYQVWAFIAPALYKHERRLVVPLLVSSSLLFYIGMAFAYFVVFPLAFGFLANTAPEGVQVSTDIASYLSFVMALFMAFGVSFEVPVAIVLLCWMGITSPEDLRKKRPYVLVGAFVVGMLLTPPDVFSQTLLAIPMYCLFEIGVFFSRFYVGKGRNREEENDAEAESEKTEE

[1] = biological target: the molecule itself; assay: as above
[2] = biological target: the molecule itself; assay: cryo-EM structure; M. xanthus TatBC complex purified in GDN; single particle, C3 symmetry
[3] = biological target: the molecule itself; assay: cryo-EM structure; N. salsuginis TatBC complex purified in GDN; single particle, C3 symmetry
[4] = biological target: T2, E. coli TatC with a C-terminal strep tag, expressed from the tatABC plasmid (E. coli, UniProt P69423 1-258); assay: quantification of Coomassie stained SDS-PAGE bands of the purified complexes; purified E. coli TatABC and TatBC loaded at 4 dilutions; bands quantified with ImageJ; three independent samples; conditions: both partners purified
T2 construct: TatC, E. coli; also called TatC_(strep); source: E. coli MC4100 ΔtatABCD ΔtatE, tatABC operon on a low copy number plasmid; in GDN-solubilised membranes, captured on Streptactin XT; not shown: strep tag, C-terminal, kept
T2 sequence: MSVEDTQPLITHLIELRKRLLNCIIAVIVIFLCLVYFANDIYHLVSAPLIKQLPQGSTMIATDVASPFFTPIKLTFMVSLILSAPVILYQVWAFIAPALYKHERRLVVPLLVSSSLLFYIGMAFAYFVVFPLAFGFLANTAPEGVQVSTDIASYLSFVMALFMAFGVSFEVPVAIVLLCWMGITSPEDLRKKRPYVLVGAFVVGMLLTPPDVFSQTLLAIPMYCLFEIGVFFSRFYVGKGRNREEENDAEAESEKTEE

[5] = biological target: the molecule itself; assay: cryo-EM structure; E. coli TatBC complex purified in GDN; single particle, C3 symmetry, 3.1 Å
[6] = biological target: the molecule itself; assay: crystal structure; selenomethionine-labelled M. xanthus TatC periplasmic domain; sitting drop, 21 °C; data to 2.0 Å

stoichiometry N (E. coli TatBC complex): 3
B1: E. coli MdoD, full length with its Tat signal peptide (natural protein, UniProt P40120 1-551, looked up)
chain: MDRRRFIKGSMAMAAVCGTSGIASLFSQAAFAADSDIADGQTQRFDFSILQSMAHDLAQTAWRGAPRPLPDTLATMTPQAYNSIQYDAEKSLWHNVENRQLDAQFFHMGMGFRRRVRMFSVDPATHLAREIHFRPELFKYNDAGVDTKQLEGQSDLGFAGFRVFKAPELARRDVVSFLGASYFRAVDDTYQYGLSARGLAIDTYTDSKEEFPDFTAFWFDTVKPGATTFTVYALLDSASITGAYKFTIHCEKSQVIMDVENHLYARKDIKQLGIAPMTSMFSCGTNERRMCDTIHPQIHDSDRLSMWRGNGEWICRPLNNPQKLQFNAYTDNNPKGFGLLQLDRDFSHYQDIMGWYNKRPSLWVEPRNKWGKGTIGLMEIPTTGETLDNIVCFWQPEKAVKAGDEFAFQYRLYWSAQPPVHCPLARVMATRTGMGGFSEGWAPGEHYPEKWARRFAVDFVGGDLKAAAPKGIEPVITLSSGEAKQIEILYIEPIDGYRIQFDWYPTSDSTDPVDMRMYLRCQGDAISETWLYQYFPPAPDKRQYVDDRVMS
notes: MdoD (OpgD), E. coli, precursor with the 32 residue Tat signal peptide; amplified from E. coli genomic DNA (DSM 1116); also called OpgD; source: E. coli BL21 (DE3) ΔtatABCD ΔtatE, pET28a modified, purified (His-tag resin), His6-SUMO removed with Ulp1; not shown: His6-SUMO, N-terminal, cleaved
stoichiometry N [1]: 2

B2: M. xanthus TatC (GFP-His removed) (natural protein, Myxococcus xanthus)
chain: MSLADHLTELRSRLMRCTIAVLILGTISLVFAKPIFGLLMQPVLDALPPENRSLIYTSGIEELNVLMKVGVYCGIFLTTPVILMQIWGFVSPGLYPEERRFAAPFVAFGSIAFLLGAAFCYFAVLPSMFTFLLNEEETLALEQRLDTARLRADDALRFLRLGEAEEAGRIAKETSTQLRAEGQGQAPAPEVAPAASVEMTGRLDGLGRLLDAASVGYGAQSRGVLRQAVEKRVEAVTAYEKKDFAAAAAAMDGSASLLAGIAPTRTEELAGLWRLEKELATAHAAHEAARWTRPMLSMHEQLSLVLLLILAFGIIFELPLVMALLGVVGVVKSSWLFRYQRHAFVVCLIAAAIITPTGDVVNLSLMAGPMLLCYELGVLLVWMVERRRARNSAETGITPAS
notes: TatC, Myxococcus xanthus, with a large periplasmic insert; gene codon-optimised and synthesised; source: E. coli strain L56, pWALDO based pTatC-GFP-His, co-overexpressed with TatB-strep; purified in GDN (Ni-NTA, TEV, Streptactin XT, SEC)
stoichiometry N [2]: 3

B3: N. salsuginis TatC (GFP-His removed) (natural protein, Nitratifractor salsuginis)
chain: MFESMKPHLAELRQRLAISVLAVFVGFIIAFTFHNAILGWITKPLNNALIQVGKIVEKREMGTWKISGNEHNATLAPSKSPALLSDHAQSAEKLHRTLAEASQATQNPKLQKLLSQAASAAEELARNSRILRKALVKEENLTRQAVNQNLREKSFNGMITTHQVGGAFFVALKVSFFAGILMAMPVILWQLWLFIAPGLYDNEKKMVLPFVVGGSVMFLIGVLFAYYVVTPFGFQFLITFGSFLYTPLINIEDYVGFFTKILIGFGIAFELPVVAYFLALLGLITDKTLKDYFKYAIVIIFLLAAFLTPPDVLTQLLMAAPLILLYGLSILIVHYVNPYKPEEKEDDEEEEEDEFEKAEREFEALEKGSESHES
notes: TatC, Nitratifractor salsuginis, with a large periplasmic insert; gene codon-optimised and synthesised; source: E. coli strain L56, pWALDO based pTatC-GFP-His, co-overexpressed with TatB-strep or TatA-strep; purified in GDN or digitonin (Ni-NTA, TEV, Streptactin XT, SEC)
stoichiometry N [3]: 3

ratio of TatB to TatC in the TatABC complex relative to the TatBC complex [4]: 0.78
B4: E. coli TatB expressed from the tatABC plasmid (natural protein)
chain: MFDIGFSELLLVFIIGLVVLGPQRLPVAVKTVAGWIRALRSLATTVQNELTQELKLQEFQDSLKKVEKASLTNLTPELKASMDELRQAAESMKRSYVANDPEKASDEAHTIHNPVVKDNEAAHEGVTPAAAQTQASSPEQKPETTPEPVVKPAADAEPKTAAPSPSSSDKP
notes: TatB, E. coli; source: E. coli MC4100 ΔtatABCD ΔtatE, tatABC operon on a low copy number plasmid; in GDN-solubilised membranes, co-purified

B5: E. coli TatB (subunit of the overexpressed TatBC complex) (natural protein)
chain: MFDIGFSELLLVFIIGLVVLGPQRLPVAVKTVAGWIRALRSLATTVQNELTQELKLQEFQDSLKKVEKASLTNLTPELKASMDELRQAAESMKRSYVANDPEKASDEAHTIHNPVVKDNEAAHEGVTPAAAQTQASSPEQKPETTPEPVVKPAADAEPKTAAPSPSSSDKP
notes: TatB, E. coli; amplified from E. coli genomic DNA (DSM 1116); residues 1-63 modelled in the cryo-EM map; source: E. coli MC4100 ΔtatABCD ΔtatE, pQE60 based vector, co-overexpressed with TatC; purified in GDN (His-tag resin, SEC)
binding result [5]: binds

B6: M. xanthus TatC periplasmic domain (residues 127-303) (domain or fragment, Myxococcus xanthus, UniProt Q2PHA2 127-303, looked up)
chain: SMFTFLLNEEETLALEQRLDTARLRADDALRFLRLGEAEEAGRIAKETSTQLRAEGQGQAPAPEVAPAASVEMTGRLDGLGRLLDAASVGYGAQSRGVLRQAVEKRVEAVTAYEKKDFAAAAAAMDGSASLLAGIAPTRTEELAGLWRLEKELATAHAAHEAARWTRPMLSMHEQLS
modifications: selenomethionine-labelled
notes: TatC, Myxococcus xanthus, periplasmic domain, residues 127-303; also called M. xanthus insert; M. xanthus periplasmic domain; source: E. coli B834 (DE3), pET15b, purified (Ni-NTA, TEV, SEC)
stoichiometry N [6]: 3
